Data as given in patent publication US11078245B2, “Colon and pancreas cancer peptidomimetics” (PRECISION BIOLOGICS, INC., priority 2010, dated 2021).
Values joined by “and” are separate entries in the source; they are usually repeats but may differ in a detail not shown here. Equal entries are not always repeated. Where two headings read alike, the source gives them in different places.

Experiments:
[1] = normal BALB/c mice
Method: Mouse anti-NEO-101 antibody (MAHA) responses were also measured in this study (CB08-5110). The analysis employed an ELISA based assay to detect NEO-101-specific antibodies in mouse serum.

[2] = system: CFPAC-1 cells; experiment: Immunofluorescence staining with MUC5AC antibodies; format: cell-based, human; settings: 2 μg/ml antibody
Method: LS174T and CFPAC-1 cells were grown on cover slips coated in FBS for 48 hours. Cells were then fixed with 4% PFA in PBS, washed with PBS, permeabilized with 0.2% Triton X-100, washed with PBS and blocked with 1% BSA in PBS. Cells were incubated with either 2 μg/ml NEO-101, MS-X, 2-11M1, H160, 351-450, 2-12M1, or 1-13M1. Cells were washed with PBS and then second antibody was added anti-human-FITC, anti-mouse-FITC or anti-rabbit-FITC (1:500), cells were washed and mounted on slides with DAPI hard mount. Cover slides were allowed to sit over night at 4° C. Slides were visualized with a Nikon Eclipse Ti microscope with an Andor camera.

[3] = system: lung cancer cell line A549; experiment: Immunofluorescence with FITC labeled NEO-101; format: cell-based, human; settings: 2 μg/ml FITC labeled antibody
[4] = system: lung tumor tissue; experiment: Immunohistochemistry of lung tumor tissue; format: binding; settings: 10 μg/ml biotinylated antibody
Method: Slides were deparaffinized, rehydrated and antigen retrieval was performed. Slides were then stained with 10 μg/ml biotinylated NEO-101 antibody and then streptavidin-HRP was applied for color development. Slides were counter stained with H.E., hydrated and fixed. The results
The specificity of NEO-101 for pancreatic and colorectal tumor tissue was further shown by staining lung tumor tissue. While there was significant binding to these tissues with a commercial antibody that recognizes normal MUC5AC, there was no reactivity of NEO-101 with these lung tumor tissues.

[5] = system: SW480 Colorectal; experiment: Flow cytometry tumor cell binding; format: cell-based, human
Method: (§1) See International Patent Application No. PCT/US2011/41502.
(§2) FACs data showing NEO-101 antibody binding to colon cancer and pancreatic cancer cell lines. Cells were washed and suspended in either 2 μg/ml NEO-101-FITC or isotype control antibody-FITC for 1 hour, washed and then subjected to FACS analysis. Experiments with all cell lines were repeated at least three times. […] DAPI was used to stain the nucleus. […] The staining pattern of these pancreatic and colorectal tumor cells was predominantly membrane-associated, consistent with the expression profile of MUC5AC.

[6] = system: Colo-205 Colorectal; experiment: Flow cytometry tumor cell binding; format: cell-based, human
Method: as §1, §2

[7] = system: CFPAC-1 Pancreatic; experiment: Flow cytometry tumor cell binding; format: cell-based, human
Method: as §1, §2

[8] = system: LS174T Colorectal; experiment: Flow cytometry tumor cell binding; format: cell-based, human
Method: as §1, §2

[9] = system: CFPAC1 cells; experiment: NEO-101-coupled Dynal beads rosette assay; format: cell-based, human; settings: antibody-coupled Dynal beads with TBS, no M13 clone
Method: The M13 clones identified by the biopanning were also immunoassayed using magnetic beads. Aliquots of 5 μl M13 phage (10^11/10 μl) were mixed with 10 μl NEO-101-coupled Dynal® beads at RT for 20 min on a rotator. CFPAC1 cells (30 μl of 10^6 cells/ml) were added and incubated at 4° C. for 30 min. Rosetted cells were counted (>8 beads/cell).

[10] = system: Colon cancer; experiment: Immunohistochemistry: human tissues with biotinylated NEO-101; format: binding
Excerpt: (§3) Consequently, the positively stained “normal” tissues may have already undergone genotypic changes (“pre-cancerous”) resulting in the expression of the aberrantly glycosylated MUC5AC antigen that could lead to detection of carcinoma with NEO-101.

[11] = system: Prostate cancer; experiment: as above; format: binding
Excerpt: as §3

[12] = system: Normal pancreas; experiment: as above; format: binding
Excerpt: as §3

[13] = system: Normal uterus; experiment: as above; format: binding
Excerpt: as §3

[14] = system: Normal colon; experiment: as above; format: binding
Excerpt: as §3

[15] = system: Normal prostate; experiment: as above; format: binding
Excerpt: as §3

[16] = system: Uterus cancer; experiment: as above; format: binding
Excerpt: as §3

[17] = system: Pancreas cancer; experiment: as above; format: binding
Excerpt: as §3

B1: NEO-101: Chimeric NEO-101 antibody, engineered in CHO-DG44 production cell clone 4B7; targets a variant of MUC5AC (protein)
light: QVVLTQSPVIMSASPGEKVTMTCSASSSISYMYWYQQKPGTSPKRWIYDTSKLASGVPARFSGSGSGTSYSLTISNMEAGDAATYYCHQRDSYPWTFGGGTNLEIK
heavy: QVQLKESGPDLVAPSQSLSITCTVSGFSLSKFGVNWVRQPPGKGLEWLGVIWGDGSTSYNSGLISRLSISKENSKSQVFLKLNSLQADDTATYYCVKPGGDYWGHGTSVTVSS
- immunogenicity (MAHA response) [1]: only mildly immunogenic
- cells stained [2]: about 50%
- binding by immunofluorescence [3]: does not bind
- reactivity with lung tumor tissues [4]: no reactivity
- % Cells Stained [5]: 58.98%
- mfi [5]: 118
- Percent positive ([5]; 2 μg/ml FITC antibody, FACS): 58.98%
- % Cells Stained [6]: 94.67%
- mfi [6]: 175
- Percent positive ([6]; 2 μg/ml FITC antibody, FACS): 94.67%
- % Cells Stained ([7]; CFPAC-1): 52.56%
- mfi ([7]; CFPAC-1): 59
- Percent positive ([7]; CFPAC, 2 μg/ml FITC antibody, FACS): 52.56%
- Percent positive ([8]; LS174, 2 μg/ml FITC antibody, FACS): 89.72%
- % Cells Stained ([8]; LS174T): 89.72%
- mfi ([8]; LS174T): 103
- Positive rosette cells (%) [9]: 41%
- Tissue staining intensity +1 [10]: (15%)
- Tissue staining intensity +2 [10]: (8%)
- Tissue staining intensity +4 [10]: (10%)
- Tissue staining intensity Negative [10]: (56%)
- Tissue staining intensity Weak [10]: (10%)
- Tissue staining intensity +1 ([10]; samples/total): 7/48
- Tissue staining intensity +2 ([10]; samples/total): 4/48
- Tissue staining intensity +4 ([10]; samples/total): 5/48
- Tissue staining intensity Negative ([10]; samples/total): 27/48
- Tissue staining intensity Weak ([10]; samples/total): 5/48
- Total Positive ([10]; samples/total): 21/48
- Tissue staining intensity +1 [11]: (12%)
- Tissue staining intensity +2 [11]: (12%)
- Tissue staining intensity Negative [11]: (75%)
- Total Positive [11]: (25%)
- Tissue staining intensity +1 ([11]; samples/total): 5/40
- Tissue staining intensity +2 ([11]; samples/total): 5/40
- Tissue staining intensity Negative ([11]; samples/total): 30/40
- Total Positive ([11]; samples/total): 10/40
- Tissue staining intensity Negative [12]: (100%)
- Total Positive [12]: (0%)
- Tissue staining intensity Negative ([12]; samples/total): 3/3
- Total Positive ([12]; samples/total): 0/3
- Tissue staining intensity Negative [13]: (100%)
- Total Positive [13]: (0%)
- Tissue staining intensity Negative ([13]; samples/total): 12/12
- Total Positive ([13]; samples/total): 0/12
- Tissue staining intensity +2 [14]: (25%)
- Tissue staining intensity Negative [14]: (75%)
- Total Positive [14]: (25%)
- Tissue staining intensity +2 ([14]; samples/total): 1/4
- Tissue staining intensity Negative ([14]; samples/total): 3/4
- Total Positive ([14]; samples/total): one of four and 1/4
- Tissue staining intensity Negative [15]: (100%)
- Total Positive [15]: (0%)
- Tissue staining intensity Negative ([15]; samples/total): 4/4
- Total Positive ([15]; samples/total): 0/4
- Tissue staining intensity +2 [16]: (5%)
- Tissue staining intensity +3 [16]: (19%)
- Tissue staining intensity Negative [16]: (76%)
- Total Positive [16]: (24%)
- Tissue staining intensity +2 ([16]; samples/total): 2/42
- Tissue staining intensity +3 ([16]; samples/total): 8/42
- Tissue staining intensity Negative ([16]; samples/total): 32/42
- Total Positive ([16]; samples/total): 10/42
- Tissue staining intensity +1 [17]: (16%)
- Tissue staining intensity +2 [17]: (6%)
- Tissue staining intensity +3 [17]: (17%)
- Tissue staining intensity +4 [17]: (9%)
- Tissue staining intensity Negative [17]: (52%)
- Tissue staining intensity +1 ([17]; samples/total): 17/108
- Tissue staining intensity +2 ([17]; samples/total): 7/108
- Tissue staining intensity +3 ([17]; samples/total): 18/108
- Tissue staining intensity +4 ([17]; samples/total): 10/108
- Tissue staining intensity Negative ([17]; samples/total): 56/108
- Total Positive ([17]; samples/total): 52/108
